Measurements as given in patent publication US20030143191A1, “Chemokine beta-1 fusion proteins” (priority 2001, published 2003).

Key:
human monocytes = assay: Cytokine release from human monocytes (ELISA of culture supernatants); type: cell-based; conditions: human monocytes (1×10^6), 1 day incubation
Experimental: To evaluate the in vitro activity of Ckb1(G-28-N93) and Ckb1(G-28-N93) fused to human serum albumin, proteins produced by these constructs were incubated with human monocytes (1×10^6) for 1 day. Culture supernatants were collected and analyzed by ELISA for cytokine content.

monocytes = conditions: cited from earlier work
CCR1 = target: T1, CCR1 (Homo sapiens, UniProt P32246); conditions: Detheux et al., J. Exp. Med. 192:1501-1508 (2000); cited from earlier work
T1 sequence (P32246 1-355): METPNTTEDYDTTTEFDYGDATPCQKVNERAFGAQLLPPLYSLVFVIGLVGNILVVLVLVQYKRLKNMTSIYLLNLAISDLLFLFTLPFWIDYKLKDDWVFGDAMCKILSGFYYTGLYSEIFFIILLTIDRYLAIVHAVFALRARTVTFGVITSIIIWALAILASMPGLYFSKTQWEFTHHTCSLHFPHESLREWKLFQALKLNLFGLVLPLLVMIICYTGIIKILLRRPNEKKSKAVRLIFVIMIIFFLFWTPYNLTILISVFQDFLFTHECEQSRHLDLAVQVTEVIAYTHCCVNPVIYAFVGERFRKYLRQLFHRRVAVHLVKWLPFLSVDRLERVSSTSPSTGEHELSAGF

[1] = system: Jaks-STATS signal transduction pathway; assay: Jurkat:GAS-SEAP reporter assay for T-cell activity; type: cell-based; conditions: Jurkat:GAS-SEAP cells; 100 Unit/ml; positive control wells; 48 hrs
Experimental: The following protocol is used to assess T-cell activity by identifying factors, and determining whether a fusion protein (e.g. albumin fusion protein) of the invention proliferates and/or differentiates T-cells. T-cell activity is assessed using the GAS/SEAP/Neo construct produced in Example 29. Thus, factors that increase SEAP activity indicate the ability to activate the Jaks-STATS signal transduction pathway. The T-cell used in this assay is Jurkat T-cells (ATCC Accession No. TIB-152), although Molt-3 cells (ATCC Accession No. CRL-1552) and Molt-4 cells (ATCC Accession No. CRL-1582) cells can also be used.
Jurkat T-cells are lymphoblastic CD4^+ Th1 helper cells. In order to generate stable cell lines, approximately 2 million Jurkat cells are transfected with the GAS-SEAP/neo vector using DMRIE-C (Life Technologies)(transfection procedure described below). The transfected cells are seeded to a density of approximately 20,000 cells per well and transfectants resistant to 1 mg/ml genticin selected. Resistant colonies are expanded and then tested for their response to increasing concentrations of interferon gamma.
Specifically, the following protocol will yield sufficient cells for 75 wells containing 200 ul of cells. Thus, it is either scaled up, or performed in multiple to generate sufficient cells for multiple 96 well plates. […]

[2] = system: Jaks-STATS signal transduction pathway; assay: GAS-SEAP/U937 reporter assay for myeloid activity; type: cell-based; conditions: GAS-SEAP/U937 cells; 100 Unit/ml; positive control wells; 48 to 72 hr
Experimental: The following protocol is used to assess myeloid activity of a fusion protein (e.g. albumin fusion protein) of the present invention by determining whether the fusion protein proliferates and/or differentiates myeloid cells. Myeloid cell activity is assessed using the GAS/SEAP/Neo construct produced in Example 29. Thus, factors that increase SEAP activity indicate the ability to activate the Jaks-STATS signal transduction pathway. The myeloid cell used in this assay is U937, a pre-monocyte cell line, although TF-1, HL60, or KG1 can be used.
To transiently transfect U937 cells with the GAS/SEAP/Neo construct produced in Example 29, a DEAE-Dextran method (Kharbanda et. al., 1994, Cell Growth & Differentiation, 5:259-265) is used. First, harvest 2×10^7 U937 cells and wash with PBS. The U937 cells are usually grown in RPMI 1640 medium containing 10% heat-inactivated fetal bovine serum (FBS) supplemented with 100 units/ml penicillin and […] streptomycin.
Next, suspend the cells in 1 ml of 20 mM Tris-HCl (pH 7.4) buffer containing 0.5 mg/ml DEAE-Dextran, 8 ug GAS-SEAP2 plasmid DNA, 140 mM NaCl, 5 mM KCl, 375 uM Na2HPO4.7H2O, 1 mM MgCl2, and 675 uM CaCl2. Incubate at 37 degrees C. for 45 min.
Wash the cells with RPMI 1640 medium containing 10% FBS and then resuspend in 10 ml complete medium and incubate at 37 degree C. for 36 hr. […]

CCR3 = target: T2, CCR3 (Homo sapiens, UniProt P51677); conditions: Detheux et al., J. Exp. Med. 192:1501-1508 (2000); cited from earlier work
T2 sequence (P51677 1-355): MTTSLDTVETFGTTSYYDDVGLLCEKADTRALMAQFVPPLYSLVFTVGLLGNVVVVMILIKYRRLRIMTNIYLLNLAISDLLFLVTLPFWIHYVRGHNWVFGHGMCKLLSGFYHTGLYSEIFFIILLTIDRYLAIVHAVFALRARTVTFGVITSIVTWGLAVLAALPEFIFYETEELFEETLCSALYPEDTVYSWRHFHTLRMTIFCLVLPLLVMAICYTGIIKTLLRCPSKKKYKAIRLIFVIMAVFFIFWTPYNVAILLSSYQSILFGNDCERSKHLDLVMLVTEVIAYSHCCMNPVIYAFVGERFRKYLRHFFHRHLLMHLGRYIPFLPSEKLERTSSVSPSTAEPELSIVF

CCR5 = CCR5 (Homo sapiens, UniProt P51681); conditions: Detheux et al., J. Exp. Med. 192:1501-1508 (2000); cited from earlier work
Chain of CCR5 (P51681 whole entry, species assumed): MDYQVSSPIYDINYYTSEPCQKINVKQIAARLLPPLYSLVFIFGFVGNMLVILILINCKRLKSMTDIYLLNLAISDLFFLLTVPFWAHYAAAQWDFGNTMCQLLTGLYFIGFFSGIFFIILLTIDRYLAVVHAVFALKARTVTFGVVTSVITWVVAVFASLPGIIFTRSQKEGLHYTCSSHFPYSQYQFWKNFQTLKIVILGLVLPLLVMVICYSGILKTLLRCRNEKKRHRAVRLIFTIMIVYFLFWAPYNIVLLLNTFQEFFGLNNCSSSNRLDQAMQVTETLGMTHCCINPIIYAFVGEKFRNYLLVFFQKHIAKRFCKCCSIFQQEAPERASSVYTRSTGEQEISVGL

B1: Ckb1(G28-N93): Ckb1 polypeptide, residues G28-N93, not fused (protein)
chain: GPYHPSECCFTYTTYKIPRQRIMDYYETNSQCSKPGIVFITKRGHSVCTNPSDKWVQDYIKDMKEN
release of IL-1β (human monocytes): induced release | release of IL-6 (human monocytes): induced release | release of TNF-alpha (human monocytes): induced release

B2: Ckb1: human chemokine beta 1; mature form of 74 amino acids, amino acids 1-74 of SEQ ID NO:2 (protein, listed as Homo Sapiens)
chain: MKISVAAIPFFLLITIALGTKTESSSRGPYHPSECCFTYTTYKIPRQRIMDYYETNSQCSKPGIVFITKRGHSV
activation of monocytes (monocytes): weak activator | agonism / activation of CCR1 (CCR1): activates CCR1 at high (supraphysiological) concentrations

B3: IFN-g: IFN family ligand; positive control known to activate Jurkat T cells and U937 cells (protein, UniProt P01579 24-161, looked up)
Interferon gamma: QDPYVKEAENLKKYFNAGHSDVADNGTLFLGILKNWKEESDRKIMQSQIVSFYFKLFKNFKDDQSIQKSVETIKEDMNVKFFNSNKKKRDDFEKLTNYSVTDLNVQRKAIHELIQVMAELSPAAKTGKRKRSQMLFRG
induction (SEAP reporter activity) [1]: Over 30 fold | induction (SEAP reporter activity) [2]: Over 30 fold

B4: Ckb1 [9-74]: N-terminal deletion variant of Ckb1 consisting of amino acids 9-74 of SEQ ID NO:2 (Detheux et al.) (protein, listed as Homo Sapiens)
chain: PFFLLITIALGTKTESSSRGPYHPSECCFTYTTYKIPRQRIMDYYETNSQCSKPGIVFITKRGHSV
agonism / activation of CCR1 (CCR1): potent agonist | agonism of CCR3 (CCR3): potent agonist | agonism of CCR5 (CCR5): potent agonist
